Assay results from the RNAGym collection of RNA variant scans (doi:10.1073/pnas.2313332121).

B1: TPR t1 (parent)
chain: GACCAAUCUGCCCUCAGAGCUCGAGAACAUCUUCGGAUGCAGAGGAGGCAGGCUUCGGUGGCGCGAUAGCGCCAACGUCCUCAACCUCCAAUGCAUCCCACCACAUGAUGAUGCCUGAAGAGCCUUGGUUUUUUG

Variants of: B1
Assay: polymerase ribozyme fitness, log enrichment relative to wild type (log ratio); higher = more active; in vitro selection for triplet polymerase activity
How it was run: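 In triplicate, a single round of in vitro selection was run on each mutant library, PCR-built and transcribed, covering one subunit of a heterodimeric triplet polymerase ribozyme. Frozen incubation at −7 °C followed annealing with a biotinylated primer, partner subunit and triplets, and extended constructs were then gel-excised, streptavidin-captured and taken through RT-PCR. Fitness is the logarithm of genotype enrichment over wild-type enrichment, from inverse-variance-weighted replicate averages of Illumina-sequenced inputs and outputs. […] only genotypes with ≥10 input reads and ≥1 read per output were kept.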

Row | Variant | polymerase ribozyme fitness (log ratio)
1 | GACCAAUCUGCCCUCAGAGCUUGAGAACAUCUUCGGAUACAGAGGAGGCAGGCUUCGGUGGCGUGAUAGCGCCAACGUCCUCAACCUCCAAUGCAUCCUACCACAUGAUGAUGCCUGAAGAGCCUUGGUCUUUUG [C22U G39A C64U C99U U130C] | -6.29
2 | GACCAAUCUGCCCUCAGAGCUUGAGAACAUCUUCGGAUGCAGAGGAGGCAGGCUUCGGUGGCGCGAUAGCGCCAACGUCCUCAACCUCCAAUGCAUCCCACCACAUGAUGAUGCCUGAAUAGCCUUGGUUUUUUG [C22U G120U] | -3.75
3 | GACCAAUCUGCCCUCAGAGCUUGAGAACAUCUUCGGAUGCAGAGGAGGCCGGCUUCGGUGGCGCGAUAGCGCCAACGUCCUCAACCUCCAAUGCAUCCCACCACAUGAUGAUGCCUGAAGAGCAUUGGUUUUUUG [C22U A50C C124A] | -3.54
4 | GACCAAUCUGCCCUCAGAGCUUGAGAACAUCUUCGGAUGCAGAGGAGGCCGGCUUCGGUGGCGCGAUAGCGCCAACGUCCUCAACCUCCAAUGCAUCCCACUACAUGAUGAUGCCUGAAGAGCGUUGGUUUUUUG [C22U A50C C102U C124G] | -5.01
5 | GACCAAUCUGCCCUCAGAGCUUGAGAACAUCUUCGGAUGCAGAGGAGGCAGGCUUCGGUAGCGCGAUAGCGCCAACGUCCUCAACCUCCAAUGCAUCCCACCACAUGAUGAUGCCUGAAGAGCCUUGGUUUUUUG [C22U G60A] | -3.85
6 | GACCAAUCUGCCCUCAGAGCUUGAGAACAUCUUCGGAUGCAGAGGAGGCAGGCUUCGGUGGCGCGAUAGCGCCAACGUCCUCAACCUCCAUUGCAUCCCACCACAUGAUGAGGCCUGAAGAGCCUUGGUUUUUUG [C22U A91U U112G] | -6.06
7 | GACCAAUCUGCCCUCAGAGCUUGAGAACAUCUUCGGAUGCAGAGGAGGCAGGCUUGGGUGGCGCGAUAGCGCCAACGACCUCAACCUCCAAUGCAUCCCACCACAUGAUGAUGCCUGAAGAGCCUUGGUUUUUUG [C22U C56G U78A] | -3.95
8 | GACCAAUCUGCCCUCAGAGCUCAAGGACAUCUUCGGAUGCAGAGGAGGCAGGCUUCGGUGGCGCGAUAGCGCCAACGUCCUCAACCUCCAAUGCAUCCCACCAAAUGAUGAUGCCUGAAGAGCCUUGGUUUUUUG [G23A A26G C104A] | -5.12
9 | GACCAAUCUGCCCUCAGAGCUUGAGAACAUCUUCGGAUGCAGAGGAGGCAGGCUUCGGUGGCGCGAUAGCGCCAACGUCCUCAACCUCCAAUGCAUCCCACCACAUGAUGAUGCCUGAAGUGCCUUGGUUUUUUG [C22U A121U] | -2.45
10 | GACCAAUCUGCCCUCAGAGCUCAAGAACAUUUUCGGAUGCAGAGGAGGCAGGCUUCGGUGGCGCGAUAGCGCCAACGUCCUCAACCUCCAAUGCAUCCCACCACAUGAUGAUGCCUGAAGAUCGUUGGUUUUUUG [G23A C31U G122U C124G] | -7.15
11 | GACCAAUCUGCCCUCAGAGCUGGAGAACAUCUUCGGAUGCAGAGGAGGCAGGCUUCGGUGGCGCGAUAGCUCCAACGUCCUCAACCUCCAAUGCAUCCCACCACAUGAUGAUGCCUGAAGAGCCUUGGUUUUUUG [C22G G71U] | -3.63
12 | GACCAAUCUGCCCUCAGAGCUUGAGAACAUCUUCGGAUACAGAGGAGGCAGGCUUCGGUGGCGCGAUAGCGCCAACGUCCUCAACCUCCAAUGCAUCCCACCACAUGAUGAUGCCUGAAGAGCCUUGGUUUUUUG [C22U G39A] | -4.66
13 | GACCAAUCUGCCCUCAGAGCUUGAGAACAUCUUCGGAUGCAGAGGAGGCAGGCUUCGGUGGCGCGAUAUCGCCAACGUCCUCAACCUCCAAUGCAUCCCACCACAUGAUGAUGCCUGAAGAGCCUUGGUUUUUUG [C22U G69U] | -2.26
14 | GACCAAUCUGCCCUCAGAGCUUGAGAACAUCUUCGGAUGCAGAGGAGGCAGGCUUCGGUGGCGCGAUAGUGCCAACGUCCUCAACCUGCAAUGCAUCCCACCACAUGAUGAUGCCUGAAGAGCCUUGGUUUUUUG [C22U C70U C88G] | -6.53
15 | GACCAAUCUGCCCUCAGAGCUUGAGAACAUCUUCGGAUGCAGAGGAGGCAAGCUUCGGUGGCGCGAUAGCGCCAACGUCCUCAACCUCCAAUGCAUCCCACCACAUGAUGAUGCCUGAAGAGCCUUGGUUUUUUG [C22U G51A] | -4.81
16 | GACCAAUCUGCCCUCAGAGCUUGAGAACAUCUUCGGAUGCAGAGGAGGCAGACUUCGGUGGCGCGAUAGCGCCAACGUCCUCACCCUCCAAUGCAUCCCACCAUAUGAUGAUGCCUGAAGAGCCUUGGUUUUUUG [C22U G52A A84C C104U] | -5.74
17 | GACCAAUCUGCCCUCAGAGCUGGAGAACAUCUUCGGAUGCAGAGGAGGCAGGCUUCGGUGGCGCGAUAGCGCCAACGACCUCAACCAACAAUGCAUCCCACAACAUGAUGAUGCCUGAAGAGCCUUGGUUUUUUG [C22G U78A U87A C88A C102A] | -5.54
18 | GACCAAUCUGCCCUCAGAGCUUGAGAACAUCUUCGGAUGCAGAGGAGGCAGGCUUCGGUGGCGCGAUAGCGCCCACGUUCUCAACCUCCAAUGCAUCCCACCACAUGAUGAUGCCUGAAGUGCCUUGGUUUUUUG [C22U A74C C79U A121U] | -2.29
19 | GACCAAUCUGCCCUCAGAGCUUGAGAACAUCUUCGGAUGCAGAGGAGGCAGGCUUCGGUGGCGCGAUAGCGCCAACGUCCUCAACCUCCAAUGCAUCCCAACACAUGAUGAUGCCUGAAGAACCUUGGUUUUUUG [C22U C101A G122A] | -6.14
20 | GACCAAUCUGCCCUCAGAGCUCAAGGACAUCUUCGGAUGCAGAGGAGGCAGGCUUCGGUGGCGCGAUAGCGCCAACGUCCUCAACCUCCAAUGCAUCCCACCACAUGAUGAUGCCUGAAGAGCCUUGGUUUUUUG [G23A A26G] | -4.52
21 | GACCAAUCUGCCCUCAGAGCUUGAGAACAUCUUCGGAUGCAGAGGAGGCAGGCUUCGGUGGCGCGAUAGCGCCAACGUCCUCAACCUCCAAUGCAUCCCACCACUUGAUGAUGCCUGAAGAGCCUUGGUUUUUUG [C22U A105U] | -6.8

Row | Variant | polymerase ribozyme fitness (log ratio)
22 | GACCAAUCUGCCCUCAGAGCUUGAGAACAUCUUCGGAUGCAGAGGAGGCAGGCUUGGGUGGCGCGAUAGCGCCAACGUCCUCAACCUCCAAUGCAUCCCACCACAUGAUGAUGCCUGAAGAGCCUUGGUUUUUUG [C22U C56G] | -3.79
23 | GACCAAUCUGCCCUCAGAGCUUGAGAACAUCUUCGGAUGCAGAGGAGGCAGGCUUCGGUGGCGCGAUAGCGCCAACGUCCUCAACCUCCAAUGCAUCCCACCACAGGAUGAUGCUUGAAGAGCCUUGGUUUUUUG [C22U U106G C115U] | -6.69
24 | GACCAAUCUGCCCUCAGAGCUUGAGAACAUCUUCGGAUGCAGAGGAGGCAGGCUUCGGUGGCGCGAUAGUGCCAACGUCCUCAACCUCCAAUGCAUCCCACCACAUGAUGAUGCCUGAAGAGCCUUGGUUUUUUG [C22U C70U] | -4.14
25 | GACCAAUCUGCCCUCAGAGCUCAAGAACAUCUUCGGAUGCAGAGGAGGCAGGCUUCGGUGGCGGGAUAGCGCCAACGUCCUCAACCUCCAAUGCAUCCCACCACAUGAUGAUGCUUGAAGAGGCUUGGUUUUUUG [G23A C64G C115U C123G] | -6.62
26 | GACCAAUCUGCCCUCAGAGCUUGAGAACAUCUUCGGAUGCAGAGGAGGCAGGCUUCGGUGGCGCGAUAGCGCCAACGUCCUCAACCUCCUAUGCAUCCCACCACAUGAUGAGGCCUGAAGAGCCUUGGUUUUUUG [C22U A90U U112G] | -7.35
27 | GACCAAUCUGCCCUCAGAGCUGGAGAACAUCGUCGGAUGCAGAGGAGGAAGGCUUCGGUGUCGCGAUAGCGCCAACGUCCUCAACCCCCAAUGCAUCCCACCACAUGAUGAUGCCUGAAGAGCCUUGGUUUUUUG [C22G U32G C49A G61U U87C] | -4.78
28 | GACCAAUCUGCCCUCAGAGCUUGAGAACAUCUUCGGAUGCAGAGAAGGCAGGCUUCGGUGGCGCGAUAGCGCCAACGUCCUCCACCUCCAAUGCAUCCCACCACAUGAUGAUGCCUGAAGAGCCUUGGUUUUUUG [C22U G45A A83C] | -5.99
29 | GACCAAUCUGCCCUCAGAGCUGGAGAACAUCUUCGGAUGCAGAGGAGGCAGGCUUCGGUGGCGCGAUAGCGCCAACGUCCUCAACCUCCAAUUCAUCCCACCACAUGAUGAUGCCUGAAGAGCCUUGGUUUUUUG [C22G G93U] | -3.03
30 | GACCAAUCUGCCCUCAGAGCUUGAGAACAUCUUCGGAUGCAGAGGAGGCAGGCUUCGGUGGCGCGAUAGCGCCAACGUCCUCAACCUCCAAUGCAUCCCACCACAUGAUGAUGCUUGAAGAGCCUUGGUUUUUUG [C22U C115U] | -4.01
31 | GACCAAUCUGCCCUCAGAGCUUGAGAACAUCUUCGGAUGCAGAGGAGGCAGGCUUGGGUAGCGCGAUAGCGCCAACGUCCUCAACCUCCAAUGCAUCCCACCACAUGAUGAUGCCUGAAGAGCCUUGGUUUUUUG [C22U C56G G60A] | -5.5
32 | GACCAAUCUGCCCUCAGAGCUGGAGAACAUCUUCGGAUGCAGAGGAGGCAGGCUUCGGUGACGCGAUAGCGCCAACGUCCUCAACUUCCAAUGCAUCCCACCACAUGAUGAUGCCUGAAGAGACUUGGUUUUUUG [C22G G61A C86U C123A] | -4.09
33 | GACCAAUCUGCCCUCAGAGCUUGAGUACAUCUUCGGAUGCAGAGGAGGCAGGUUUCGGUGGCGCGAUACCGCCAACGUCCUCAACCUCCAAUGCAUCCCACCACAUGAUGAUGCCUGAGGAGCCUUGGUUUUUUG [C22U A26U C53U G69C A119G] | -6.14
34 | GACCAAUCUGCCCUCAGAGCUGGAGAACAUCUUCGGAUGCAGAGGAGGCAGGCUUCGGUGGCGCGAUAGCGCCAACGUCCUCAACCUCCAAUGCAUCCCACCACAUGAUGAAGCCUGUAGAGCCUUGGUUUUUUG [C22G U112A A118U] | -1.75
35 | GACCAAUCUGCCCUCAGAGCUCAAGAACAUCUUCGGAUGCAGAGGAGGCAGGCUUCGGUGGCGCGAUAGCGGCAACGUCCUCAACCUCCAAUGCAUCCCACCACAUGAUGAUGCCUGAAGAGCCUUGGUUUUUUG [G23A C72G] | -4.87
36 | GACCAAUCUGCCCUCAGAGCUUGAGAACAUCUUCGGAUGCAGAGGAGGCAGGCUUCGGUGGCGCGAUAGCGACAACGUCCUCAACCUCCAAUGCAUCCCCCCACAUGAUGAUGCCUGAAGAGCCUUGGUUUUUUG [C22U C72A A100C] | -4.76
37 | GACCAAUCUGCCCUCAGAGCUUGAGAUCAUCUUCGGAUGCAGAGCAGGCAGGCGUGGGUGGCCCGAUAGCGCCAACGUCCUCAACCUCCAAUGCAUCCCACCACAUGAUGAUGCCUGAAGUGCCUUGGUUUUUUG [C22U A27U G45C U54G C56G G63C A121U] | -5.28
38 | GACCAAUCUGCCCUCAGAGCUGGAGAACAUCUUCGGAGGCAGAGGAGGCAGGCUUCGGUGGCGCGAUAGCGCCAACGUCCUCAACCUCCAAUGCAUCCCACCACAUGAUGAUGCCUGAAGAGCCUUGGUUUUUUG [C22G U38G] | -4.45
39 | GACCAAUCUGCCCUCAGAGCUCAAGAACAUCUUCGGAUGCAGAGGAGGCAGGUUUCGGUGGCGCGAUAGCGCCAACGUCCUCAACCUCCAAUGCAUCCCACCACAUGAUGAUGCCUGAAGAGCCUUGGUUUUUUG [G23A C53U] | -5.33
40 | GACCAAUCUGCCCUCAGAGCUUGAGAACAUCUUCGGAUGCAGAGGAGGCAGGCUUCGGUGGCGCUAUAGCGGCAACGUCCUCAACCUCCAAUGCAUCCCACCACAUGAUGAUGCCUGAAGAGCUUUGGUUUUUUG [C22U G65U C72G C124U] | -5.7
41 | GACCAAUCUGCCCUCAGAGCUUGAGAACAUCUUCGGAUGCAGAGGAGGCAGGCUUCGGUGGCGCGAUAGCGCCAACGUCCUCAACCUCCAAUGCAUCCCACCACAUGAUGAUGCCUGAAGAGCCUUGGUUAUUUG [C22U U131A] | -3.95
42 | GACCAAUCUGCCCUCAGAGCUUGAGAACAUCUUCGGAUGCAGAGGAGGCAGGCUUAGGUGGCGCGAUAGCGACAACGUCCUCCACCUCCAAUGCAACCCACCACAUGAUGAUGCCUGAAGAGCCUUGGUUUUUUG [C22U C56A C72A A83C U96A] | -5.56
